{"source": "IntAct's records for PubMed 35512704", "parents": {"B1": {"name": "Mothers against decapentaplegic homolog 4 (Homo sapiens), Q13485 (parent)", "chain": "MDNMSITNTPTSNDACLSIVHSLMCHRQGGESETFAKRAIESLVKKLKEKKDELDSLITAITTNGAHPSKCVTIQRTLDGRLQVAGRKGFPHVIYARLWRWPDLHKNELKHVKYCQYAFDLKCDSVCVNPYHYERVVSPGIDLSGLTLQSNAPSSMMVKDEYVHDFEGQPSLSTEGHSIQTIQHPPSNRASTETYSTPALLAPSESNATSTANFPNIPVASTSQPASILGGSHSEGLLQIASGPQPGQQQNGFTGQPATYHHNSTTTWTGSRTAPYTPNLPHHQNGHLQHHPPMPPHPGHYWPVHNELAFQPPISNHPAPEYWCSIAYFEMDVQVGETFKVPSSCPIVTVDGYVDPSGGDRFCLGQLSNVHRTEAIERARLHIGKGVQLECKGEGDVWVRCLSDHAVFVQSYYLDREAGRAPGDAVHKIYPSAYIKVFDLRQCHRQMQQQAATAQAAAAAQAAAVAGNIPGPGSVGGIAPAISLSAAAGIGVDDLRRLCILRMSFVKGWGPDYPRQSIKETPCWIEIHLHRALQLLDEVLHTMPIADPQPLD", "partner": "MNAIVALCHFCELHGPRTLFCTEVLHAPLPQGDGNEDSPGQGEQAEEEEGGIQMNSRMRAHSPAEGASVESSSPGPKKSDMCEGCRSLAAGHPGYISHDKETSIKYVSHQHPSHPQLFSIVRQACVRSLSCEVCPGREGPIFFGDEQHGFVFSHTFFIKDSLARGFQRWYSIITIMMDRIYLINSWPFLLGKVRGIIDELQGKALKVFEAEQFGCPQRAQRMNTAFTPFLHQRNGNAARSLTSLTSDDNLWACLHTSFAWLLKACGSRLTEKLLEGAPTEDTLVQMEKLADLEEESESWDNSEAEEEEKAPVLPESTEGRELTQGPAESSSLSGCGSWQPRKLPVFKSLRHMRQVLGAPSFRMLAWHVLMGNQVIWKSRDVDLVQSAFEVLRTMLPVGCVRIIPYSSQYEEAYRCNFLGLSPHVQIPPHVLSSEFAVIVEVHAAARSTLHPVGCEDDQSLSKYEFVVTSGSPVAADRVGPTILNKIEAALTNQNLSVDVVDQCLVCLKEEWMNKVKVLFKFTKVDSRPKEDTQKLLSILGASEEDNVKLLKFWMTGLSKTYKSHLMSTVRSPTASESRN"}, "B2": {"name": "Mothers against decapentaplegic homolog 4 (Homo sapiens), Q13485 (parent)", "chain": "B1 chain", "partner": "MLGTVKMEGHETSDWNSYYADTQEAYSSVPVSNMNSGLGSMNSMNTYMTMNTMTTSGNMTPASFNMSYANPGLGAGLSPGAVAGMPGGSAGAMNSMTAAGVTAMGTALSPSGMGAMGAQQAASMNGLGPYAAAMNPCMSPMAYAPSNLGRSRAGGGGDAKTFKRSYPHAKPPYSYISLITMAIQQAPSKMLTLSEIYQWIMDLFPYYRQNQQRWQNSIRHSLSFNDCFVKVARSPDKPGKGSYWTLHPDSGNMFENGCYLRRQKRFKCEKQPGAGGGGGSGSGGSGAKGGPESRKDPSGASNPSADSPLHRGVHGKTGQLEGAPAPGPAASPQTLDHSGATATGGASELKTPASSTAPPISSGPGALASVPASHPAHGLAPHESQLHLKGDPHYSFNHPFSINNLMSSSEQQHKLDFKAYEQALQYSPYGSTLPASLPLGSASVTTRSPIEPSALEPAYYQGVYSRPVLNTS"}, "B3": {"name": "Mothers against decapentaplegic homolog 4 (Homo sapiens), Q13485 (parent)", "chain": "B1 chain", "partner": "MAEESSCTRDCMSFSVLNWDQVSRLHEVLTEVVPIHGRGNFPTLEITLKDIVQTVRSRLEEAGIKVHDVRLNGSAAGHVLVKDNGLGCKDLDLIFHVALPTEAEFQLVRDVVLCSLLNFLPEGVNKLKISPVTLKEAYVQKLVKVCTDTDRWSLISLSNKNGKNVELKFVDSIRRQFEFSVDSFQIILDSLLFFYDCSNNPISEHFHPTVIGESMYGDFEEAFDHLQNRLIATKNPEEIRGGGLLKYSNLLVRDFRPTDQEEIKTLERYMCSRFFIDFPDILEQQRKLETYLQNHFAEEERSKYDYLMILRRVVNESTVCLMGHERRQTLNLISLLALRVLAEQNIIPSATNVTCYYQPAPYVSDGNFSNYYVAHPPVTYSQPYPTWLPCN"}, "B4": {"name": "Mothers against decapentaplegic homolog 4 (Homo sapiens), Q13485 (parent)", "chain": "B1 chain", "partner": "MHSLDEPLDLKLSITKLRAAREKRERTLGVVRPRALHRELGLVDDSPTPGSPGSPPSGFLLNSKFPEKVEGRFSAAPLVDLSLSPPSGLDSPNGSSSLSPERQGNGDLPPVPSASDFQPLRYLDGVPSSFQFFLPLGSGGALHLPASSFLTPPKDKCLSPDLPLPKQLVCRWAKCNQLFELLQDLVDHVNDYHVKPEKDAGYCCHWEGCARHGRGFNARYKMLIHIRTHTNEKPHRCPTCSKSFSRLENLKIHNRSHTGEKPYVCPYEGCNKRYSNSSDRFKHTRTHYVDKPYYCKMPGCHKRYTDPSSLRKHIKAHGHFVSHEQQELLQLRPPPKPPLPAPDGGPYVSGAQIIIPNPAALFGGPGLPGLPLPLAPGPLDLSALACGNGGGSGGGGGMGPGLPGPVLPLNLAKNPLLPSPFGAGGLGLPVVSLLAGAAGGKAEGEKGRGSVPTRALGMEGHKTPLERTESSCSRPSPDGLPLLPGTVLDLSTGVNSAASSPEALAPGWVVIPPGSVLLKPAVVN"}, "B5": {"name": "Mothers against decapentaplegic homolog 4 (Homo sapiens), Q13485 (parent)", "chain": "B1 chain", "partner": "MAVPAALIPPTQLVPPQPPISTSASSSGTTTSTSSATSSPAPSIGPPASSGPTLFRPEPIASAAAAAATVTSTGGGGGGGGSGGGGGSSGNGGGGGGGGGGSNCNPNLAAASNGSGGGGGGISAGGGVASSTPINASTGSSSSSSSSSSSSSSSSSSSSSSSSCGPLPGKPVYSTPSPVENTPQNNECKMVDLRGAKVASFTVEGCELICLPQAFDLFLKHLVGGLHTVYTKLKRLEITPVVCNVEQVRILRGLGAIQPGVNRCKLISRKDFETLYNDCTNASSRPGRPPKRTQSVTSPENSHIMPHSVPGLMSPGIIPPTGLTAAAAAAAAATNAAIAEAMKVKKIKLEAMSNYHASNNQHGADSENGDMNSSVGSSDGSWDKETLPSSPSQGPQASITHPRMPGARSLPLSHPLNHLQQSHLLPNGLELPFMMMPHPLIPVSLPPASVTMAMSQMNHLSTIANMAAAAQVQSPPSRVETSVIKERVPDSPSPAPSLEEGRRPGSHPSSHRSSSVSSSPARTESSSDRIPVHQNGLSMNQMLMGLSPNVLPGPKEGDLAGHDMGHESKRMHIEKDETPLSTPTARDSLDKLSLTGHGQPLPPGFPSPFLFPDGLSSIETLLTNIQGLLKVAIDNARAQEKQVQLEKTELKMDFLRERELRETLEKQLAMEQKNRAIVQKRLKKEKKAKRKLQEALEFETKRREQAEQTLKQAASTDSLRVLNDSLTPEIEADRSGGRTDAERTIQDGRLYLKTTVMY"}, "B6": {"name": "Mothers against decapentaplegic homolog 4 (Homo sapiens), Q13485 (parent)", "chain": "B1 chain", "partner": "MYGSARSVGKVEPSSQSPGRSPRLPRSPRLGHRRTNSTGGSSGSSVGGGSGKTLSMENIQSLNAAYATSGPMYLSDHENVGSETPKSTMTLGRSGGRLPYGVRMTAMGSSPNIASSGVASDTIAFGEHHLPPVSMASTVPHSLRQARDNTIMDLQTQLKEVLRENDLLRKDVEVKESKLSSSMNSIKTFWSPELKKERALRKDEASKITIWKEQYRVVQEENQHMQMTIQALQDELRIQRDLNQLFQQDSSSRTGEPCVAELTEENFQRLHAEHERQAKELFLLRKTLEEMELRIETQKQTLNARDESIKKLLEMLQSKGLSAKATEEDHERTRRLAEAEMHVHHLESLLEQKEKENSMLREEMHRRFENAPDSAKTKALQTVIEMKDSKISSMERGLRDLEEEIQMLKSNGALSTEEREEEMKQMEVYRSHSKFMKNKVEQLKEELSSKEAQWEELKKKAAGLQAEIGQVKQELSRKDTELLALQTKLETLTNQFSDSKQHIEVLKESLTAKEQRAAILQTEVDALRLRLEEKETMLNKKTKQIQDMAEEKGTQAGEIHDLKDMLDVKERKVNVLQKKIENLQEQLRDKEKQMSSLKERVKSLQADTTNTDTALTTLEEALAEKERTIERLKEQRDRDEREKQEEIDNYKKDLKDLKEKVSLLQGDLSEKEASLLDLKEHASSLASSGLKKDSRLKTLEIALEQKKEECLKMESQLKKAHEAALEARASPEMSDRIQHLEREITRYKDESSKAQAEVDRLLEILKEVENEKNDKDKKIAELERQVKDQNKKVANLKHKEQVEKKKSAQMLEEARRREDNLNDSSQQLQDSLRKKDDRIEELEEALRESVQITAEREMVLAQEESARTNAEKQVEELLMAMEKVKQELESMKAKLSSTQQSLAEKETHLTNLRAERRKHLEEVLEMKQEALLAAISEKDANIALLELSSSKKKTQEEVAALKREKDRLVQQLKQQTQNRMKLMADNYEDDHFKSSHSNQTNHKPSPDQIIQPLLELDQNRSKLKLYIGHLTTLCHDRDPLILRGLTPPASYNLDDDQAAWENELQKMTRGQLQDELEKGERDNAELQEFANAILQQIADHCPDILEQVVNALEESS"}}, "data": [{"variants_of": "B1", "conditions": "with flcn_human FLCN", "values": [{"variant": "R361H", "effect of a mutation on the interaction": "with no effect"}]}, {"variants_of": "B1", "conditions": "with flcn_human FLCN", "remark": "another data set of the same source", "values": [{"variant": "R361C", "effect of a mutation on the interaction": "with no effect"}]}, {"variants_of": "B1", "conditions": "with flcn_human FLCN", "remark": "another data set of the same source", "values": [{"variant": "G386D", "effect of a mutation on the interaction": "with no effect"}]}, {"variants_of": "B1", "conditions": "with flcn_human FLCN", "remark": "another data set of the same source", "values": [{"variant": "D351H", "effect of a mutation on the interaction": "with no effect"}]}, {"variants_of": "B2", "conditions": "with foxa1_human FOXA1, P55317", "values": [{"variant": "G386D", "effect of a mutation on the interaction": "with no effect"}]}, {"variants_of": "B2", "conditions": "with foxa1_human FOXA1, P55317", "remark": "another data set of the same source", "values": [{"variant": "R361H", "effect of a mutation on the interaction": "with no effect"}]}, {"variants_of": "B2", "conditions": "with foxa1_human FOXA1, P55317", "remark": "another data set of the same source", "values": [{"variant": "R361C", "effect of a mutation on the interaction": "with no effect"}]}, {"variants_of": "B2", "conditions": "with foxa1_human FOXA1, P55317", "remark": "another data set of the same source", "values": [{"variant": "D351H", "effect of a mutation on the interaction": "with no effect"}]}, {"variants_of": "B3", "conditions": "with tet5c_human TENT5C", "values": [{"variant": "G386D", "effect of a mutation on the interaction": "with no effect"}]}, {"variants_of": "B3", "conditions": "with tet5c_human TENT5C", "remark": "another data set of the same source", "values": [{"variant": "D351H", "effect of a mutation on the interaction": "with no effect"}]}, {"variants_of": "B3", "conditions": "with tet5c_human TENT5C", "remark": "another data set of the same source", "values": [{"variant": "R361C", "effect of a mutation on the interaction": "with no effect"}]}, {"variants_of": "B3", "conditions": "with tet5c_human TENT5C", "remark": "another data set of the same source", "values": [{"variant": "R361H", "effect of a mutation on the interaction": "with no effect"}]}, {"variants_of": "B4", "conditions": "with glis2_human GLIS2, Q9BZE0", "values": [{"variant": "G386D", "effect of a mutation on the interaction": "with no effect"}]}, {"variants_of": "B4", "conditions": "with glis2_human GLIS2, Q9BZE0", "remark": "another data set of the same source", "values": [{"variant": "D351H", "effect of a mutation on the interaction": "with no effect"}]}, {"variants_of": "B4", "conditions": "with glis2_human GLIS2, Q9BZE0", "remark": "another data set of the same source", "values": [{"variant": "R361H", "effect of a mutation on the interaction": "with no effect"}]}, {"variants_of": "B4", "conditions": "with glis2_human GLIS2, Q9BZE0", "remark": "another data set of the same source", "values": [{"variant": "R361C", "effect of a mutation on the interaction": "with no effect"}]}, {"variants_of": "B5", "conditions": "with dach1_human DACH1, Q9UI36", "values": [{"variant": "G386D", "effect of a mutation on the interaction": "with no effect"}]}, {"variants_of": "B5", "conditions": "with dach1_human DACH1, Q9UI36", "remark": "another data set of the same source", "values": [{"variant": "R361C", "effect of a mutation on the interaction": "with no effect"}]}, {"variants_of": "B5", "conditions": "with dach1_human DACH1, Q9UI36", "remark": "another data set of the same source", "values": [{"variant": "R361H", "effect of a mutation on the interaction": "with no effect"}]}, {"variants_of": "B5", "conditions": "with dach1_human DACH1, Q9UI36", "remark": "another data set of the same source", "values": [{"variant": "D351H", "effect of a mutation on the interaction": "with no effect"}]}, {"variants_of": "B6", "conditions": "with rb6i2_human ERC1, Q8IUD2", "values": [{"variant": "D351H", "effect of a mutation on the interaction": "with no effect"}]}, {"variants_of": "B6", "conditions": "with rb6i2_human ERC1, Q8IUD2", "remark": "another data set of the same source", "values": [{"variant": "G386D", "effect of a mutation on the interaction": "with no effect"}]}, {"variants_of": "B6", "conditions": "with rb6i2_human ERC1, Q8IUD2", "remark": "another data set of the same source", "values": [{"variant": "R361C", "effect of a mutation on the interaction": "with no effect"}]}]}
